Patent US20100075434A1 (NATIONAL UNIVERSITY CORPORATION TOKYO MEDICAL AND DENTAL …, published 2010)
Numbering of substitutions follows the chain as printed. Square brackets hold non-standard residues; d marks the D form. * marks the point of attachment. NBD = O=[N+]([O-])c1ccc(*)c2nonc12; Dap = NC[C@H](N)C(=O)O; ClAc = O=C(CCl)*

B1: probe polypeptide of Example 1, structural formula (9) (peptide)
peptide: Ac-ALKKKLEALKKK[Dap](NBD)EALKKKLA-NH2
SMILES: CC(=O)N[C@@H](C)C(=O)N[C@@H](CC(C)C)C(=O)N[C@@H](CCCCN)C(=O)N[C@@H](CCCCN)C(=O)N[C@@H](CCCCN)C(=O)N[C@@H](CC(C)C)C(=O)N[C@@H](CCC(=O)O)C(=O)N[C@@H](C)C(=O)N[C@@H](CC(C)C)C(=O)N[C@@H](CCCCN)C(=O)N[C@@H](CCCCN)C(=O)N[C@@H](CCCCN)C(=O)N[C@@H](CNc1ccc([N+](=O)[O-])c2nonc12)C(=O)N[C@@H](CCC(=O)O)C(=O)N[C@@H](C)C(=O)N[C@@H](CC(C)C)C(=O)N[C@@H](CCCCN)C(=O)N[C@@H](CCCCN)C(=O)N[C@@H](CCCCN)C(=O)N[C@@H](CC(C)C)C(=O)N[C@@H](C)C(N)=O
notes: the text says (9); also called L-NBD; probe peptide
B2: probe peptide for crosslink reaction, structural formula (12) (peptide)
peptide: ClAc-GALKKKLEALKKK[Dap](NBD)EALKKKLA-NH2
notes: also called ClAc-G probe

Experiments:
[1] = molecular target: T1, tag polypeptide of Example 1, structural formula (8) (not fully specified); experiment: fluorescence titration, tag added to 0.5 µM probe in HEPES buffer, 505 nm, 1:1 model
T1 construct: Chemically synthesized from two fragments (Chain A with the linker cysteine, Chain B) joined by native chemical ligation; also called A2
T1 peptide: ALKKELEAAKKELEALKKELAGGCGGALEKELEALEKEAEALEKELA
Method: (§1) In the fluorescence titration, the rate of change of the fluorescence intensity at 505 nm was plotted against the concentration of the tag peptide and the dissociation constant was calculated from a theoretical formula assuming 1 to 1 binding of the tag peptide to the probe peptide.
(§2) In FIG. 6, the horizontal axis represents the titer of the tag against the probe whereas the vertical axis represents the relative increase in fluorescence intensity when the fluorescence intensity detected for the probe alone at fluorescence wavelength of 505 nm is estimated as 1. […] In Example 1, the fluorescence intensity at 505 nm in the presence of 1 equivalent of tag peptide was 18 times as high as that measured in the absence of the tag peptide.

[2] = molecular target: T2, tag polypeptide of Example 3, structural formula (11) (not fully specified); experiment: as above
T2 construct: also called G2
T2 peptide: T1 peptide with A9G, A39G
Method: as §1, §2

[3] = molecular target: T3, tag polypeptide of Example 2, structural formula (10); experiment: as above
T3 construct: also called L2
T3 peptide: T1 peptide with A9L, A39L
Method: as §1, §2

[4] = molecular target: T1, tag polypeptide of Example 1, …; experiment: fluorescence titration, 0.5 µM probe in HEPES buffer
Method: as §1, §2

[5] = molecular target: T2, tag polypeptide of Example 3, …; experiment: as above
Method: as §1, §2

[6] = molecular target: T3, tag polypeptide of Example 2, …; experiment: as above
Method: as §1, §2

[7] = molecular target: T4, fused protein of DsRed and PKC having at its N terminal end a tag polypeptide of sequence (A) (Homo sapiens (Human), UniProt Q05655 1-676); experiment: fluorescence microscopy of permeabilized CHO.K1 cells, 1 µM probe, NBD against DsRed localization with and without PDBu
T4 construct: Expressed in the cytoplasm of CHO.K1 cells, which were permeabilized with saponin before the probe was added; also called tag-fused PKC
T4 sequence (Q05655 other isoform, or with tags, fused parts or gaps limits assumed): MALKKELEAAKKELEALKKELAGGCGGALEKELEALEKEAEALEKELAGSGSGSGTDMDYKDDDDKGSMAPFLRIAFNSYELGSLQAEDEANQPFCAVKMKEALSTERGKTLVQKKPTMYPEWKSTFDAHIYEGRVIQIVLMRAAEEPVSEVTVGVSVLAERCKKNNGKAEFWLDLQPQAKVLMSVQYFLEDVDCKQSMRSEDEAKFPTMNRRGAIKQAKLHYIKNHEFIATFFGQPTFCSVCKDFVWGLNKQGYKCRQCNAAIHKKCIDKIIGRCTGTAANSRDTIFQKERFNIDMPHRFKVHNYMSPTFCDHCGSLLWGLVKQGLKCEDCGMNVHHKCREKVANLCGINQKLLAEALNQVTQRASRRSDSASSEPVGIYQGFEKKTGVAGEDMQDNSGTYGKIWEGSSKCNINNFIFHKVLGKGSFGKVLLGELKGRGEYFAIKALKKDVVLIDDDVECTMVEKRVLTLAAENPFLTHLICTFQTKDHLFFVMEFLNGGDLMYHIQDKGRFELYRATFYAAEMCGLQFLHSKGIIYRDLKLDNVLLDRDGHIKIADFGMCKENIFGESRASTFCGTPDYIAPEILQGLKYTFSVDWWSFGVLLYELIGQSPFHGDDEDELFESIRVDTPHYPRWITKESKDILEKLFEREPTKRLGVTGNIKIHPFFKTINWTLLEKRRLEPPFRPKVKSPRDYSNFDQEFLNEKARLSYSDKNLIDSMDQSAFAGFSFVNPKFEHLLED
Method: Subsequently, a permeabilization buffer (20 mM Hepes, pH 7.4, 140 mM KCl, 50 μg/mL saponin, 5 mM oxalic acid) was added to the thus-prepared CHO.K1 cells. After left to stand on ice for 10 min, the cells were washed with PBS, followed by incubating on ice for 20 min in PBS. Thereafter, the cells were incubated in PBS at room temperature for 2 min and then 37° C. for 2 min. Further, the cells were incubated at 37° C. for 30 min in a conditioned medium (Ham's F12) to which a probe indicated by sequence (B) (probe concentration: 1 μM (Final conc.)) had been added.
Separately, before treated with the permeabilization buffer, the above-prepared CHO.K1 cells were treated for 10 min with 10 mM DMSO containing PDBu (phorbol 12,13 dibutyrate; final concentration: 10 μM). The cells were observed by the fluorescence microscope similar to the above.
The following was used as a control; a group which was not treated with PDBu, and CHO.K1 cells to which only DIC was introduced (note that DIC is a vector used for introducing into cells the above-mentioned fused protein of DsRed and PKC having at its N terminal end a tag polypeptide indicated by sequence (A). The cells were observed as mentioned above at predetermined wavelength (515 nm to 560 nm). The results are shown in FIG. 11.

| Binder | Kd [1] | Kd [2] | Kd [3] | equivalents of tag peptide at which the change in fluorescence saturates [4] | fold increase of fluorescence intensity at 505 nm with 1 equivalent of tag peptide against probe alone [4] | equivalents of tag peptide at which the change in fluorescence saturates [5] | equivalents of tag peptide at which the change in fluorescence saturates [6] | binding result [7] |
| --- | --- | --- | --- | --- | --- | --- | --- | --- |
| B1 | 17.5 nM | 755 nM | 24.3 nM | 1 equivalent | 18 times | 1 equivalent | 1 equivalent | – |
| B2 | – | – | – | – | – | – | – | binds |
